Laboratory results reported in IntAct's records for PubMed 15086341.

B1: Lysine-specific demethylase hairless (Mus musculus), Q61645 (parent)
chain: MESMPSFLKDTPAWEKTAPVNGIVGQEPGTSPQDGLRHGALCLGEPAPFWRGVLSTPDSWLPPGFLQGPKDTLSLVEGEGPRNGERKGSWLGGKEGLRWKEAMLAHPLAFCGPACPPRYGPLIPEHSGGHPKSDPVAFRPLHCPFLLETKILERAPFWVPTCLPPYLMSSLPPERPYDWPLAPNPWVYSGSQPKVPSAFGLGSKGFYHKDPNILRPAKEPLAESGMLGLAPGGHLQQACESEGPSLHQRDGETGAGRQQNLCPVFLGYPDTVPRAPWPSCPPGLVHSLGNIWAGPGSNSLGYQLGPPATPRCPSPGPPTPPGGCCSSHLPAREGDLGPCRKCQDSPEGGSSGPGESSEERNKADSRACPPSHHTKLKKTWLTRHSEQFECPGGCSGKEESPATGLRALKRAGSPEVQGASRGPAPKRPSHPFPGTGRQGARAWQETPETIIGSKAEAEQQEEQRGPRDGRIRLQESRLVDTSCQHHLAGVTQCQSCVQAAGEVGVLTGHSQKSRRSPLEEKQLEEEDSSATSEEGGGGPGPEASLNKGLAKHLLSGLGDRLCRLLRKEREALAWAQREGQGPAMTEDSPGIPHCCSRCHHGLFNTHWRCSHCSHRLCVACGRIAGAGKNREKTGSQEQHTDDCAQEAGHAACSLILTQFVSSQALAELSTVMHQVWAKFDIRGHCFCQVDARVWAPGDGGQQKEPTEKTPPTPQPSCNGDSNRTKDIKEETPDSTESPAEDGAGRSPLPCPSLCELLASTAVKLCLGHDRIHMAFAPVTPALPSDDRITNILDSIIAQVVERKIQEKALGPGLRAGSGLRKGLSLPLSPVRTRLSPPGALLWLQEPRPKHGFHLFQEHWRQGQPVLVSGIQKTLRLSLWGMEALGTLGGQVQTLTALGPPQPTNLDSTAFWEGFSHPETRPKLDEGSVLLLHRTLGDKDASRVQNLASSLPLPEYCAHQGKLNLASYLPLGLTLHPLEPQLWAAYGVNSHRGHLGTKNLCVEVSDLISILVHAEAQLPPWYRAQKDFLSGLDGEGLWSPGSQTSTVWHVFRAQDAQRIRRFLQMVCPAGAGTLEPGAPGSCYLDAGLRRRLREEWGVSCWTLLQAPGEAVLVPAGAPHQVQGLVSTISVTQHFLSPETSALSAQLYHQGASLPPDHRMLYAQMDRAVFQAVKAAVGALQEAK

Variants of: B1
Settings: with Thrb

Row | Variant | effect of a mutation on the interaction
1 | D1005N | with no effect
